Target: IL-33 (UniProt O95760)
Test: co-immunoprecipitation with anti-HA, immunoblot
Conditions: reference: wild type PTRF; sites Y158

**Q.** For “polymerase I and transcript release factor (PTRF, Cavin-1) (from UniProt O54724) PTRF Y158F”, which “binding against the reference” value is on record?
**A.** stronger

— article PMC6021487
